# From publication doi:10.1101/2020.08.14.250746 (bioRxiv, 2020)
# Target: Untagged human calmodulin (recombinant) (human, UniProt P0DP23 1-149)
# Experiment: pull-down
binder,measurement,value
FGKTKIFFRAGQVAYLEKLRADKLRAACIRIQKTIRGWLLRKRYLCMQR (domain or fragment) [GFP-myoVa-IQ1 (aa742-791)],binding result,binds
